# Laboratory results: paper PMC5732184, “Arabidopsis Basic Helix-Loop-Helix 34 (bHLH34) Is Involved in Glucose Signaling through Binding to a GAGA Cis-Element”
# T1: His-bHLH34 (Arabidopsis thaliana, UniProt Q9LTC7 1-320)
# T1 sequence: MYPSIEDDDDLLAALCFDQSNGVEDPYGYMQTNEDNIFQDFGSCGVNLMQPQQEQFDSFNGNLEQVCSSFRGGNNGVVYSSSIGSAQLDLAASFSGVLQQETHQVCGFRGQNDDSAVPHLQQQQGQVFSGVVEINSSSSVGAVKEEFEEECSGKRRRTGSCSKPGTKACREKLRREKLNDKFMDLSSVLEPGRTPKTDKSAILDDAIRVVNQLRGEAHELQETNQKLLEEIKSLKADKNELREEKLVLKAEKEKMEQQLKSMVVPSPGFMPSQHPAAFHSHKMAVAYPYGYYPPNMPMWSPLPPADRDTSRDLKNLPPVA
# T2: His-bHLH34 (Arabidopsis thaliana) (UniProt Q9LTC7)
# T2 sequence: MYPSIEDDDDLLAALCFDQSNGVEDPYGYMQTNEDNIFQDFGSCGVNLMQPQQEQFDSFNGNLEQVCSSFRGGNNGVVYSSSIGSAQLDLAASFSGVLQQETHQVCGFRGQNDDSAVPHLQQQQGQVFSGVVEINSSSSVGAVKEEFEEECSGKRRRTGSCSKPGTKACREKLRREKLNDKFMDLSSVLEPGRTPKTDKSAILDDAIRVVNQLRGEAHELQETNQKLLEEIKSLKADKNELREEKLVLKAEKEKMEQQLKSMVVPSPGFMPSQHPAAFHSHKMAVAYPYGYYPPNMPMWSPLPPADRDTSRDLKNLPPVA
# B1: DBE1 unlabeled competitor (dsDNA)
# DNA 1: AGAAGAGACGGC
# DNA 2: GCCGTCTCTTCT
# B2: DBE6 (dsDNA)
# DNA 1: GAGGGAGATTCA
# DNA 2: TGAATCTCCCTC
# B3: DBE2 (dsDNA)
# DNA 1: CCAGGAGAGGTT
# DNA 2: AACCTCTCCTGG
# B4: DBE1 m1 (dsDNA)
# DNA 1: AGAATAGACGGC
# DNA 2: GCCGTCTATTCT
# B5: DBE5 (dsDNA)
# DNA 1: AAATGAGATCAT
# DNA 2: ATGATCTCATTT
# B6: DBE1 m4 (dsDNA)
# DNA 1: AGAAGAGTCGGC
# DNA 2: GCCGACTCTTCT
# B7: E-box (dsDNA)
# DNA 1: CCGGCCACTTGTGCCA
# DNA 2: TGGCACAAGTGGCCGG
# B8: DBE4 (dsDNA)
# DNA 1: CTTAGAGAGGAG
# DNA 2: CTCCTCTCTAAG
# B9: DBE1 (dsDNA)
# DNA 1: AGAAGAGACGGC
# DNA 2: GCCGTCTCTTCT
# B10: DBE1 m3 (dsDNA)
# DNA 1: AGAAGATACGGC
# DNA 2: GCCGTATCTTCT
# B11: DBE3 (dsDNA)
# DNA 1: AAATGAGAGGAT
# DNA 2: ATCCTCTCATTT
# B12: DBE1 m2 (dsDNA)
# DNA 1: AGAAGTGACGGC
# DNA 2: GCCGTCACTTCT
# Target: T1, His-bHLH34
# Test: competition; 10-100x excess against 32P-DBE1; 10 mM Tris-HCl pH 7.5, 50 mM KCl, 1 mM EDTA, 1 mM DTT, 2.5% glycerol, 1 ug poly(dI-dC), 100 ng protein, 0.3 pmol DNA in 20 uL; 25 C 20 min; 5% native PAGE in TBE at 4 C
# Details: protein: recombinant; tags: His tag (pET300/NT-DEST); chain copies: 2; blunt
row,Molecule,binding result
1,B1,binds

# Target: T2, His-bHLH34 (Arabidopsis thaliana)
# Test: EMSA
# Details: 10 mM Tris-HCl pH 7.5, 50 mM KCl, 1 mM EDTA, 1 mM DTT, 2.5% glycerol, 1 ug poly(dI-dC), 100 ng protein, 0.3 pmol DNA in 20 uL; 25 C 20 min; 5% native PAGE in …
row,Molecule,binding
1,GTGATGGAGGTGTGACGCTAAGCCCTGAGCAGCACAAGGAGGTGGCACAAGTGGCCGGAGAGCTTCAAAAGTACTGTGTCAAGGAGCCTGTCAAAAATCCTCTCATTTTTGGAGGTAAAAGTGTAAGAACCTAGCTGCCA (double strand) [P2 fragment (-874 to -735)],binds
2,AACCACGGACTCAGATCCATTCCTCGAGACGTTTGAATCTCCCTCTTCAATATTCAATCCCGTACAAGGTGTTACGGAGTAGGAGTAGAAGATTAGGACTCGTCGTCAGTTCTGTTTCAGCTCCCAACGTTGAGCTCCGT (double strand) [P4 fragment (-594 to -456)],binds
3,TATTCGCAACCTATTCACAATTCACAAACTTTCAAATAAATGCGCCAAACTAAGTCAGATCCTCAAGATCGGTGTATACAAATCAGAAATCGTTACACAACCTTAGAGAGGAGGGTAGAAATGAGATCATCAGGTCCAGT (double strand) [P3 fragment (-734 to -595)],binds
4,GAAGAAGAGACGGCCTATCACGCTTCTGTAGCCTCCACCAGGAGAGGTTGGTCTAGAACAGTACACCACTTCCCAATCTGCACCAAATCCCACAAGTTCACATATTGATCCAAGGAAGAAGCAA (double strand) [P1 fragment (-999 to -875)],binds

# Target: T1, His-bHLH34
# Test: EMSA; 10 mM Tris-HCl pH 7.5, 50 mM KCl, 1 mM EDTA, 1 mM DTT, 2.5% glycerol, 1 ug poly(dI-dC), 100 ng protein, 0.3 pmol DNA in 20 uL; 25 C 20 min; 5% native PAGE in TBE at 4 C
# Details: protein: recombinant; tags: His tag (pET300/NT-DEST); chain copies: 2; label: 32P; blunt
row,Molecule,binding result
1,B2,binds
2,B3,binds
3,B4,no binding
4,B5,binds
5,B6,no binding
6,B7,binds
7,B8,binds
8,B9,binds
9,B10,no binding
10,B11,binds
11,B12,no binding
